Data reported in PMC3230689.

Columns and labels:
FUS (FLAGHA-FUS-His6) [1] = target: T1, FUS (FLAGHA-FUS-His6) (human, UniProt P35637 1-526); test: EMSA
FUS (FLAGHA-FUS-His6) [2] = target: T1, FUS (FLAGHA-FUS-His6); test: EMSA; remark: listed apart in the source

T1 sequence (P35637 whole entry): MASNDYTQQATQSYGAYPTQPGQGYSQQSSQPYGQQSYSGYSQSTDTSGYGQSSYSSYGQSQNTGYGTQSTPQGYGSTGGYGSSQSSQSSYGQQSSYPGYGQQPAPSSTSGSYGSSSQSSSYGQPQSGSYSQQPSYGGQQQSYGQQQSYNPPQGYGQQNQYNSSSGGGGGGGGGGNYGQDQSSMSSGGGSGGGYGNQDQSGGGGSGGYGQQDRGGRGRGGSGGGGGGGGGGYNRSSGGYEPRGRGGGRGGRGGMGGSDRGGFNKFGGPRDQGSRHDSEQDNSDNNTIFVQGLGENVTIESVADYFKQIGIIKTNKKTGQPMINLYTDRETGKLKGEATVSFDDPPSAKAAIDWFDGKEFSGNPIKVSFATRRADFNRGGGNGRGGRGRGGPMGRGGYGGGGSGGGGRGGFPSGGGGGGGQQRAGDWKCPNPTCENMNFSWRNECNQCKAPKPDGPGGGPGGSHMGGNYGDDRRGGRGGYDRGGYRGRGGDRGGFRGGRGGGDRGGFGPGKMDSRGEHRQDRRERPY

Binder | Kd (FUS (FLAGHA-FUS-His6) [1]) | binding result (FUS (FLAGHA-FUS-His6) [1]) | other results
AUUAUUAUUAUUAUUAUUAUUAUUAUUAUUAUUAUU (structured_RNA) [AUU trinucleotide repeat (x12)] | 198 nM |  | 
GAUUUAUCUUUAACUACUCAAGAUACUGAACAUGACA (structured_RNA) [SON_AB (natural left-right stem)] | 148 nM |  | 
GAUUAAGAUAUAACUACUCAAGAUACUGAACAUGACA (ssRNA) [SON_BB (non-complementary right-right stem)] |  | no binding | 
GGUGGUGGUGGUGGUGGUGGUGGUGGUGGUGGUGGU (ssRNA) [GGU trinucleotide repeat (x12)] |  |  | binding signal (FUS (FLAGHA-FUS-His6) [2]): > 15 fold lower Kd than SON_AB (at least; as worded in text)
GAUUAAGAUAUAACUACUCUAUCUUCUGAACAUGACA (structured_RNA) [SON_BA (reconstituted right-left stem)] |  | binds | 
